Target: T1, Human insulin (Actrapid) (human)
T1 construct: On the chip it was coupled through the N-terminus (amine coupling) or the C-terminus (surface thiol coupling); also called free insulin; immobilized insulin
Test: SPR, immobilized insulin

T1 sequence (chain, as listed by the source, chain 1 of 2): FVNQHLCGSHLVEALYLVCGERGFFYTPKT
T1 sequence (chain, as listed by the source, chain 2 of 2): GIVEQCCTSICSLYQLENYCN

Row | Binder | binding result
1 | EAEDLQVGQVALGGGPGAGSLQPLALEGSLQ [C-peptide variant Glu11-Ala] | no binding
2 | EAEDLQVGQVELGGGPGAGSLQPLALAGSLQ (also called Glu27Ala C-peptide analogue) [C-peptide variant Glu27-Ala] | no binding
3 | EAADLQVGQVALGGGPGAGSLQPLALAGSLQ [C-peptide variant with Glu3, 11 and 27 all exchanged for Ala] | no binding
